From IntAct's records for PubMed 28712572

target: gbrap_human GABARAP (UniProt O95166)
Sequence (O95166 whole entry): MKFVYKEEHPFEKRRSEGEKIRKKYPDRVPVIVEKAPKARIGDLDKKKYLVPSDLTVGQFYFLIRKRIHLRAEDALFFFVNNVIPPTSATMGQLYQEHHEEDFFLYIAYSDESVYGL

With “Pericentriolar material 1 protein (Homo sapiens), Q15154 V1964A” as the substance, how does the “effect of a mutation on the interaction” value read?
The value was “disrupting interaction strength”.

How did the “effect of a mutation on the interaction” value turn out when “Pericentriolar material 1 protein (Homo sapiens), Q15154 V1964C” was run?
Its value is “with no effect”.

With “Pericentriolar material 1 protein (Homo sapiens), Q15154 V1964D” as the substance, how does the “effect of a mutation on the interaction” value read?
The value was “decreasing interaction strength”.

How did the “effect of a mutation on the interaction” value turn out when “Pericentriolar material 1 protein (Homo sapiens), Q15154 V1964E” was run?
The value was “with no effect”.

For “Pericentriolar material 1 protein (Homo sapiens), Q15154 V1964F”, which “effect of a mutation on the interaction” value is on record?
The value was “with no effect”.

“Pericentriolar material 1 protein (Homo sapiens), Q15154 V1964G” was tested. Which “effect of a mutation on the interaction” value did it give?
The value was “disrupting interaction strength”.

“Pericentriolar material 1 protein (Homo sapiens), Q15154 V1964H” was tested. Which “effect of a mutation on the interaction” value did it give?
The value was “disrupting interaction strength”.

How did the “effect of a mutation on the interaction” value turn out when “Pericentriolar material 1 protein (Homo sapiens), Q15154 V1964I” was run?
The value was “with no effect”.

For “Pericentriolar material 1 protein (Homo sapiens), Q15154 V1964K”, which “effect of a mutation on the interaction” value is on record?
Its value is “disrupting interaction strength”.

How did the “effect of a mutation on the interaction” value turn out when “Pericentriolar material 1 protein (Homo sapiens), Q15154 V1964L” was run?
The value was “decreasing interaction strength”.

For “Pericentriolar material 1 protein (Homo sapiens), Q15154 V1964M”, which “effect of a mutation on the interaction” value is on record?
The value was “disrupting interaction strength”.

“Pericentriolar material 1 protein (Homo sapiens), Q15154 V1964N” was tested. Which “effect of a mutation on the interaction” value did it give?
The value was “disrupting interaction strength”.

“Pericentriolar material 1 protein (Homo sapiens), Q15154 V1964P” was tested. Which “effect of a mutation on the interaction” value did it give?
The value was “disrupting interaction strength”.

With “Pericentriolar material 1 protein (Homo sapiens), Q15154 V1964Q” as the substance, how does the “effect of a mutation on the interaction” value read?
The value was “disrupting interaction strength”.

“Pericentriolar material 1 protein (Homo sapiens), Q15154 V1964R” was tested. Which “effect of a mutation on the interaction” value did it give?
The value was “disrupting interaction strength”.

With “Pericentriolar material 1 protein (Homo sapiens), Q15154 V1964S” as the substance, how does the “effect of a mutation on the interaction” value read?
The value was “disrupting interaction strength”.

Which “effect of a mutation on the interaction” value does the source give for “Pericentriolar material 1 protein (Homo sapiens), Q15154 V1964T” here?
The value was “disrupting interaction strength”.

“Pericentriolar material 1 protein (Homo sapiens), Q15154 V1964W” was tested. Which “effect of a mutation on the interaction” value did it give?
The value was “disrupting interaction strength”.

“Pericentriolar material 1 protein (Homo sapiens), Q15154 V1964Y” was tested. Which “effect of a mutation on the interaction” value did it give?
Its value is “decreasing interaction strength”.

With “Pericentriolar material 1 protein (Homo sapiens), Q15154 V1966A” as the substance, how does the “effect of a mutation on the interaction” value read?
The value was “disrupting interaction strength”.

How did the “effect of a mutation on the interaction” value turn out when “Pericentriolar material 1 protein (Homo sapiens), Q15154 V1966C” was run?
The value was “disrupting interaction strength”.

“Pericentriolar material 1 protein (Homo sapiens), Q15154 V1966D” was tested. Which “effect of a mutation on the interaction” value did it give?
The value was “disrupting interaction strength”.

“Pericentriolar material 1 protein (Homo sapiens), Q15154 V1966E” was tested. Which “effect of a mutation on the interaction” value did it give?
Its value is “disrupting interaction strength”.

With “Pericentriolar material 1 protein (Homo sapiens), Q15154 V1966F” as the substance, how does the “effect of a mutation on the interaction” value read?
Its value is “with no effect”.

For “Pericentriolar material 1 protein (Homo sapiens), Q15154 V1966G”, which “effect of a mutation on the interaction” value is on record?
The value was “disrupting interaction strength”.

“Pericentriolar material 1 protein (Homo sapiens), Q15154 V1966H” was tested. Which “effect of a mutation on the interaction” value did it give?
The value was “disrupting interaction strength”.

With “Pericentriolar material 1 protein (Homo sapiens), Q15154 V1966I” as the substance, how does the “effect of a mutation on the interaction” value read?
The value was “with no effect”.

How did the “effect of a mutation on the interaction” value turn out when “Pericentriolar material 1 protein (Homo sapiens), Q15154 V1966K” was run?
Its value is “disrupting interaction strength”.

“Pericentriolar material 1 protein (Homo sapiens), Q15154 V1966L” was tested. Which “effect of a mutation on the interaction” value did it give?
Its value is “with no effect”.

Which “effect of a mutation on the interaction” value does the source give for “Pericentriolar material 1 protein (Homo sapiens), Q15154 V1966M” here?
The value was “disrupting interaction strength”.

How did the “effect of a mutation on the interaction” value turn out when “Pericentriolar material 1 protein (Homo sapiens), Q15154 V1966N” was run?
Its value is “disrupting interaction strength”.

Which “effect of a mutation on the interaction” value does the source give for “Pericentriolar material 1 protein (Homo sapiens), Q15154 V1966P” here?
The value was “disrupting interaction strength”.

Which “effect of a mutation on the interaction” value does the source give for “Pericentriolar material 1 protein (Homo sapiens), Q15154 V1966Q” here?
Its value is “disrupting interaction strength”.

With “Pericentriolar material 1 protein (Homo sapiens), Q15154 V1966R” as the substance, how does the “effect of a mutation on the interaction” value read?
The value was “disrupting interaction strength”.

“Pericentriolar material 1 protein (Homo sapiens), Q15154 V1966S” was tested. Which “effect of a mutation on the interaction” value did it give?
Its value is “disrupting interaction strength”.

“Pericentriolar material 1 protein (Homo sapiens), Q15154 V1966T” was tested. Which “effect of a mutation on the interaction” value did it give?
The value was “disrupting interaction strength”.

How did the “effect of a mutation on the interaction” value turn out when “Pericentriolar material 1 protein (Homo sapiens), Q15154 V1966W” was run?
The value was “disrupting interaction strength”.

For “Pericentriolar material 1 protein (Homo sapiens), Q15154 V1966Y”, which “effect of a mutation on the interaction” value is on record?
The value was “decreasing interaction strength”.

target: gbrap_human GABARAP (UniProt O95166); remark: another data set of the same source

“Pericentriolar material 1 protein (Homo sapiens), Q15154 D1962A;F1963A;V1966A” was tested. Which “effect of a mutation on the interaction” value did it give?
The value was “with no effect”.

target: gbrap_human GABARAP (UniProt O95166); remark: another data set of the same source

Which “effect of a mutation on the interaction” value does the source give for “Pericentriolar material 1 protein (Homo sapiens), Q15154 D1962A;F1963A;V1966A” here?
The value was “decreasing interaction strength”.
